B1: HDV Ribozyme (parent)
chain: GGCCGGCAUGGUCCCAGCCUCCUCGCUGGCGCCGGCUGGGCAACAUUCCGAGGGGACCGUCCCCUCGGUAAUGGCGAAUGGGACCCA

Variants of B1 are the subject of this series. The experiment in a line: self-cleavage, relative activity (ratio to wild type); higher = more cleavage; co-transcriptional.
Regarding GGCCGGCAUGGUCCCAGCCUCCUCGCUGGCACCGGCUGGGCAACAAUCCGAGGGGACCGUCCCCUCGGUAAUGGCGAAUGGGACCCA [G31A U46A], the self-cleavage came out at 0.108. For GGCCGGCAUGGUCCCAGCCUCCUCGCUGGCACCGGCUGGGCAACAUUCCGAGGGGACCGUCCGCUCGGUAAUGGCGAAUGGGACCCA [G31A C63G], the self-cleavage was found to be 0.365. As for GGCCGGCAUGGUCCCAGCCUCCUCGCUGGCACCGGCUGGGCAACAUUCCGAGGGGACCGUCCACUCGGUAAUGGCGAAUGGGACCCA [G31A C63A], the figure is 0.379.

As for GGCCGGCAUGGUCCCAGCCUCCUCGCUGGUGCCGGCUGGGCAACAUUCCGAGGGGACCGUCCCCUCGGUAAUGGCGAAUCGGACCCA [C30U G80C], the self-cleavage came to 0.208. As for GGCCGGCAUGGUCCCAGCCUCCUCGCUGGUGCCGGCUGGGCAACAUUCCGAGGGGACCGUCCCCUCGGUAAUGGCGAAUUGGACCCA [C30U G80U], the figure is 0.116; as for GGCCGGCAUGGUCCCAGCCUCCUCGCUGGUGCCGGCUGGGCAACAUUCCGAGGGGACCGUCCCCUCGGUAAUGGCGAAUAGGACCCA [C30U G80A], 0.227. In the case of GGCCGGCAUGGUCCCAGCCUCCUCGCUGGCCCCGGCUGGGCAACAUUCCGAGGGGACCGUCCCCUCGGUGAUGGCGAAUGGGACCCA [G31C A70G], the self-cleavage was found to be 0.285.

Regarding GGCCGGCAUGGUCCCAGCCUCCUCGCUGGCACCGGCUGGGCAACAUUCCGAGGGGACCGUCCCCUCGGUAAUGGCCAAUGGGACCCA [G31A G76C], the self-cleavage came out at 0.469. As for GGCCGGCAUGGUCCCAGCCUCCUCGCUGGCAUCGGCUGGGCAACAUUCCGAGGGGACCGUCCCCUCGGUAAUGGCGAAUGGGACCCA [G31A C32U], the figure is 0.315; as for GGCCGGCAUGGUCCCAGCCUCCUCGCUGGCACCGGCUGGGCAACAUUCCGAGGGGACCGUCCCCUCGGUAAAGGCGAAUGGGACCCA [G31A U72A], 0.0292. GGCCGGCAUGGUCCCAGCCUCCUCGCUGGCCCCGGGUGGGCAACAUUCCGAGGGGACCGUCCCCUCGGUAAUGGCGAAUGGGACCCA [G31C C36G]: the self-cleavage came out at 0.

In the case of GGCCGGCAUGGUCCCAGCCUCCUCGCUGGCCCCGGAUGGGCAACAUUCCGAGGGGACCGUCCCCUCGGUAAUGGCGAAUGGGACCCA [G31C C36A], the self-cleavage stood at 0.0277.

On to GGCCGGCAUGGUCCCAGCCUCCUCGCUGGCACCGGCUGGGCAACAUUUCGAGGGGACCGUCCCCUCGGUAAUGGCGAAUGGGACCCA [G31A C48U], for which the self-cleavage came to 0.393. As for GGCCGGCAUGGUCCCAGCCUCCUCGCUGGCACCGGCUGGGCAACAUUGCGAGGGGACCGUCCCCUCGGUAAUGGCGAAUGGGACCCA [G31A C48G], the figure is 0.456; as for GGCCGGCAUGGUCCCAGCCUCCUCGCUGGCACCGGCUGGGCAACAUUCCGAGGGGACCGUGCCCUCGGUAAUGGCGAAUGGGACCCA [G31A C61G], 0.401; as for GGCCGGCAUGGUCCCAGCCUCCUCGCUGGCACCGGCUGGGCAACAUUCCGAGGGGACCGUCCCCUCGGUAAUGGCGAAUGGUACCCA [G31A G82U], 0.0715. As for GGCCGGCAUGGUCCCAGCCUCCUCGCUGGCACCGGCUGGGCAACAUUCCGAGGGGACCGUCCCCUCGGUAAUUGCGAAUGGGACCCA [G31A G73U], the figure is 0.229; as for GGCCGGCAUGGUCCCAGCCUCCUCGCUGGCACCGGCUGGGCAACAUUCCGAGGGGACCGUCCCCUCGGUAAUAGCGAAUGGGACCCA [G31A G73A], 0.234. As for GGCCGGCAUGGUCCCAGCCUCCUCGCUGGCACCGGCUGGGCAACAUUCCGAGGGGACCGUCCCCUCGGUAAUCGCGAAUGGGACCCA [G31A G73C], the figure is 0.107. Regarding GGCCGGCAUGGUCCCAGCCUCCUCGCUGGCACCGGCUGGGCAACAUUCCGAUGGGACCGUCCCCUCGGUAAUGGCGAAUGGGACCCA [G31A G52U], the self-cleavage turned out to be 0.531.

As to GGCCGGCAUGGUCCCAGCCUCCUCGCUGGCACCGGCUGGGCAACAUUCCGACGGGACCGUCCCCUCGGUAAUGGCGAAUGGGACCCA [G31A G52C], the self-cleavage was 0.619. As for GGCCGGCAUGGUCCCAGCCUCCUCGCUGGCACCGGCUGGGCAACGUUCCGAGGGGACCGUCCCCUCGGUAAUGGCGAAUGGGACCCA [G31A A45G], the figure is 0.422. Consider GGCCGGCAUGGUCCCAGCCUCCUCGCUGGCACCGGCUGGGCAACAUUCCGAGGGGACCGUCCCCUCGGUGAUGGCGAAUGGGACCCA [G31A A70G], for which the self-cleavage amounted to 0.4. As for GGCCGGCAUGGUCCCAGCCUCCUCGCUGGCACCGGUUGGGCAACAUUCCGAGGGGACCGUCCCCUCGGUAAUGGCGAAUGGGACCCA [G31A C36U], the figure is 0.241; as for GGCCGGCAUGGUCCCAGCCUCCUCGCUGGCACCGGCUGGGCAACAUUCCGAGGGGACCGUCCCCUCGGUAAUGGCGUAUGGGACCCA [G31A A77U], 0.0906; as for GGCCGGCAUGGUCCCAGCCUCCUCGCUGGCACCGGCUGGGCAACAUUCCGAGGGGCCCGUCCCCUCGGUAAUGGCGAAUGGGACCCA [G31A A56C], 0.445. For GGCCGGCAUGGUCCCAGCCUCCUCGCUGGCCCCGGCUGGGCGACAUUCCGAGGGGACCGUCCCCUCGGUAAUGGCGAAUGGGACCCA [G31C A42G], the self-cleavage was found to be 0.0755. On to GGCCGGCAUGGUCCCAGCCUCCUCGCUGGCACCGGCUGGGCAACAUUCCGAGGGAACCGUCCCCUCGGUAAUGGCGAAUGGGACCCA [G31A G55A], for which the self-cleavage stood at 0.376. As for GGCCGGCAUGGUCCCAGCCUCCUCGCUGGCACCGGCUGGGCAACAUUCCGAGGGGAGCGUCCCCUCGGUAAUGGCGAAUGGGACCCA [G31A C57G], the figure is 0.529. Regarding GGCCGGCAUGGUCCCAGCCUCCUCGCUGGCACCGGCUGGGCAACAUUCCGAGGGGAACGUCCCCUCGGUAAUGGCGAAUGGGACCCA [G31A C57A], the self-cleavage is 0.708. As for GGCCGGCAUGGUCCCAGCCUCCUCGCUGGCCCCGGCUGGGCAACAUUCCGAGGGGACCGUCCCCUCGGUAAUGGCGUAUGGGACCCA [G31C A77U], the figure is 0.0489; as for GGCCGGCAUGGUCCCAGCCUCCUCGCUGGCACCGGCUGGGCAACAUUCCGAGGGGACCGUCCCCUCUGUAAUGGCGAAUGGGACCCA [G31A G67U], 0.439.

The values above are taken from the RNAGym collection of RNA variant scans (doi:10.7554/elife.80360).
